Reference: article PMC314469, “Protein Interaction Networks by Proteome Peptide Scanning” (PLoS Biology, 2004)

T1: amphyphisin SH3 (AMPH_HUMAN), P49418
T1 chain: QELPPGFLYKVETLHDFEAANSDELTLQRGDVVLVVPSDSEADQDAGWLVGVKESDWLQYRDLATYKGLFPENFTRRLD

B1: O15403 466-479 (peptide)
chain: VSLALVRPSKMGLS
B2: Q04671 237-250 (peptide)
chain: VASGPSRPGREEHI
B3: Q96JQ0 2039-2052 (peptide)
chain: VATDLGRPARSATG
B4: Q14183 21-34 (peptide)
chain: VSPGPIRPIRQISD
B5: Q9NPV1 31-44 (peptide)
chain: SGKAFRRPSDLFRH
B6: Q14184 22-35 (peptide)
chain: VSPGPIRPIKQISD
B7: Q9C094 1911-1924 (peptide)
chain: TWQGLRRPPSVLGH
B8: O60721 37-50 (peptide)
chain: TYQHLRRPRGLSSL
B9: Q96J01 313-326 (peptide)
chain: VAWHPKRPLLAFAS
B10: Q96P69 293-306 (peptide)
chain: TYSLLRRPFRQVLA
B11: Q9NZM4 1290-1304 (peptide)
chain: VAEPPPRPPPPPPP
B12: O00144 174-188 (peptide)
chain: VAPRPARPPGDLGP
B13: P35475 539-553 (peptide)
chain: VSARPEKPPGQVTR
B14: Q9P1W0 38-51 (peptide)
chain: VARSPKRPAWGSRR
B15: P22004 21-35 (peptide)
chain: SGPPPLRPPLPAAA
B16: Q9P1Z0 111-124 (peptide)
chain: TYTAPPRPPKKREY
B17: Q9UNP7 5-18 (peptide)
chain: TVNLFKRPLPKSKP

Target: endophilin SH3 (SH3G2_HUMAN), Q99962
Test: SPOT array

First: B1
Second: B2
The normalised SPOT signal, Boehringer light units (BLU); mean over the file's lines of this peptide of the first is lower: 9.5 for the first, 430 for the second.

Compared with B3, B4 is higher in normalised SPOT signal, Boehringer light units (BLU); mean over the file's lines of this peptide: 89.9 for the first, 254 for the second.

First: B5
Second: B6
The normalised SPOT signal, Boehringer light units (BLU); mean over the file's lines of this peptide of the first is lower: 26.9 for the first, 344 for the second.

First: B7
Second: B8
The normalised SPOT signal, Boehringer light units (BLU); mean over the file's lines of this peptide of the first is higher: 346 for the first, 196 for the second.

Going from B9 to B10, the normalised SPOT signal, Boehringer light units (BLU); mean over the file's lines of this peptide rises from 267 to 715.

Going from B11 to B12, the normalised SPOT signal, Boehringer light units (BLU); mean over the file's lines of this peptide rises from 609 to 630.

Going from B13 to B14, the normalised SPOT signal, Boehringer light units (BLU); mean over the file's lines of this peptide rises from 98.9 to 1040.

Compared with B15, B16 is lower in normalised SPOT signal, Boehringer light units (BLU); mean over the file's lines of this peptide: 4710 for the first, 166 for the second.

B17 gave a normalised SPOT signal, Boehringer light units (BLU); mean over the file's lines of this peptide of 60.8.

Target: T1, amphyphisin SH3 (AMPH_HUMAN), P49418
Test: SPOT array

First: B1
Second: B2
The normalised SPOT signal, Boehringer light units (BLU); mean over the file's lines of this peptide of the first is lower: 53.1 for the first, 2520 for the second.

Compared with B3, B4 is higher in normalised SPOT signal, Boehringer light units (BLU); mean over the file's lines of this peptide: 18.2 for the first, 1280 for the second.

First: B5
Second: B6
The normalised SPOT signal, Boehringer light units (BLU); mean over the file's lines of this peptide of the first is lower: 28.3 for the first, 126 for the second.

Compared with B7, B8 is lower in normalised SPOT signal, Boehringer light units (BLU); mean over the file's lines of this peptide: 64 for the first, 31.3 for the second.

Compared with B9, B10 is higher in normalised SPOT signal, Boehringer light units (BLU); mean over the file's lines of this peptide: 32.8 for the first, 691 for the second.

First: B11
Second: B12
The normalised SPOT signal, Boehringer light units (BLU); mean over the file's lines of this peptide of the first is lower: 75.4 for the first, 151 for the second.

Going from B13 to B14, the normalised SPOT signal, Boehringer light units (BLU); mean over the file's lines of this peptide rises from 42.3 to 47.2.

First: B15
Second: B16
The normalised SPOT signal, Boehringer light units (BLU); mean over the file's lines of this peptide of the first is lower: 58.3 for the first, 189 for the second.

B17 gave a normalised SPOT signal, Boehringer light units (BLU); mean over the file's lines of this peptide of 25.3.
